Data as given in the nanobody polyreactivity screen of Harvey et al. (2022).

Assay: yeast display, Sf9 membrane polyspecificity reagent, FACS + sequencing; frameworks hold sequencing errors
Procedure, shortened: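 Genes from sorted yeast were amplified by colony PCR, read by MiSeq 2 × 250 sequencing and filtered on CDR length. These cells carried a synthetic nanobody library in Saccharomyces cerevisiae BJ5465 and were sorted by FACS into low and high (top ~1%) gates on anti-HA and streptavidin fluorescence. Polyreactivity is labelled according to the gate of origin.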

Sequence | polyreactivity (PSR sort gate)
QVHLVESGGGLVQAGGSLRLSCAASGLTFHVYAMGWYRQAPGKERELVAAISWSGGSTYYADSVKGRFTISRDNAKNTVYLQMNSLKPEDTAVYYCAAESLSQGIWYDYWGQGTQVTVSS | high polyreactivity
QVQREESGGGLVQAGGSLRLSGAASGIIFHPYAMGWYRQAPGKERELVAAISWSGDGTYYADSVKGRFTISRDNAKNTVYLQMNSLKPEDTAVYYCNAFSQSWNFYGDGDYWGQGTQLTVSS | low polyreactivity
QVQLVESWGGLVQAGGSLRLSSAASGLTFWYYAMGCNRQAPGKESELVAAITSVGSSYYADSVKGRFTISRDNAKQTVYLQMNSLKPEDTAVYYCAAGVPPLYFRRGGDYWGQGTQVTVSS | high polyreactivity
QVQLVESGGGLVQAGGSLRLSCAASGRTFAPYAMGWYRQAPGKERELVAAITSGGSTYYADSVKGRFTISRDNAKNTVYLQMNSLKPEDTAVYYCAAKFVGTTVSEYGYWGQGTEVTVSS | low polyreactivity
QVQLVESGGGLVQAGGSLRLSCAASGSTFHSNAMGWYRQAPGKEREVVATISFGGGSKYYADSVKGRFTISRDNAKNTVYLQMNSLKPEDTAVYYCARDQTFGPCPYVWYYYPGYDYWGQGTQVTVSS | low polyreactivity
QVQLVESGGGIVQAGGSLRLICAASGRIFPYNVMGWYRQAPGKERELVAAISSGGTTDYADSVKGRFTISRDNAKNTVYLQMNSLKPEDTAVYYCAATYVYWTWGYDYWGQGTQVTVSS | low polyreactivity
QVQLEESGGGLVQAGGSLRLSCAASGSTFLRYAIGWYRQAPGKEMELVAAITASGGSTFYADSVKGRFTISRDYAKNTVYLQMNSLKPEDTPVYYCAADVSYIGKYSHDLWIYGYYYWGQGTQVTVSS | low polyreactivity
QVQLVESGGGLVQAGGSLRLSRAASGSIFKYYAMGWYRQAPGKERELVAAITYSGGSTFYADSVKGRFTISRDNAKNTVYLQMNSLKPEDTAVYYCNKVYKSYYWGGYDWGQGTQVTVSS | high polyreactivity
QVQLVESGGGLVQAGGSLRLSCAASGLIFNLYAMGWYRQAPGKEREFVATITGIGGSTYYADSVKGRFTISRDNANNTVYLQMTSLKPEDTAVYYCAADAWFLPYNYWGQGTQVTVSS | low polyreactivity
QVQLVESGGVLVQAGGSLRLSCAASGSIFNINAMGWYRQAPGKERELVAAMTSGDGTDYADSVKGRFTISRDNAKNTVYLQMNSLKPEDTAVYYCAAEYYWLVPERFDYWGQGTQVTVSS | low polyreactivity
QVQLVESGGGLVQAGGSLRLSCAASGSIFYRYAMGWYRQAPGKERELVAAISSGSSTHYADSVKGRFTISRDNAKNTVYLQMNSLKPEDTAVYYCAARYRAFTSTRRFDYWGQGTQVTVSS | high polyreactivity
QVQLVESGGGLVQAGGSLSFSCAASGFIFRAYTMGWYRQAPGKERELVAAITSSGGRTYYADSVKGRFTISRDNAKNSVYLQMNSLKPEDTAVYYCATVYAKWKQFDYWGQGTQVTVSS | high polyreactivity
QVQLVESGGGLVQAGGSLRLSCAASGSIFTYYAMGWYRPEPGKERELVAAISRRGTRTYYADSVKGRFTISRDNAKNTVYLQMNSLKPEDTAVYYCAAEYTETGTAKMEYWGQGTQVTVSS | high polyreactivity
QVQLVESGGGLVQAGGSLRLSCAASGSIFYSNAMGWYRQAPGKERELVARITWSGGSTYYADSVKGRFTISRDNAKNTVYLQMNSLKPEDTAVYYCNKVIFRYFTTRPTRTYEYWGQGTQVTVSS | low polyreactivity
QVQLVESGGGLVQAGGSLRLSCAASGRTFLLYAMGWYRQAPGKERELVAAITSGGGRTYYADSVKGRFTISRDNAKNTVYLQMNSLKPEDTAVYYCAATRPATYAAYDYWGQGTQVTVSS | high polyreactivity
QVQLVESGGGLVQAGGSLRLSCAASGSIFFDGNAMGWYRQAPGKERELVAAISVSGGSTYYADSVKGRFTISRDYAKTTVYLQINRLKPEDTAVYDCAKYPSKSYVPGDYWGQGTQVTVSS | low polyreactivity
QVQLVESGGGLVQAGGSLRLICASSGSILRYNTMVWYRQAPGKERELVAAITYRGGSTYYADSVKGRFTISRDNAKNTVYLQMNSLKPEDTAVYYCNAARWWKTPDDYWGQGNQVTVSS | high polyreactivity
QVQLVESGGGLVQAGGSLRLSCAASGSIFPYNVMGWYRQTPGKERELVADIRSDGSTTYADSVKGRFTISRDNAKNTVYLQMNSLKPEDTAVYDCAAVWTYLYSYSLWLEYDYWGQGTQVTVSS | low polyreactivity
QVQLVESGGGLVQAGGRLRLSCAASGTIFPLNAMGWYRQAPGKERELVATISSGGSTYYADSVKGRFTISRDNAKNTVYLQMNSLKPEFTAVYYCAADSWVQFEYWGQGTQVTVSS | low polyreactivity
QVQLVESGGGLVQAGGSLRLSCAASGRTFGTYAMGWYRQAPGKERELVAAITSGTRTYYADSVKGRFTISRDNAKNTVYLQMNSLKPEDTAVYDCAAGLVYRWSSTPRRLYYYWGQGTQVTVSS | high polyreactivity
QVQLVESGGGLVQAGGSLRLSCAASGRILGRNAMGWYRQAPGKERELVATITSRGGSTYYADSVKGRFTISRDNAKNTVYLQMNSLKPEDTAVYYCAAPRYYYYSYDYWGQGTQVTVSS | high polyreactivity
QVQLVESGGGLVQAGGSLRLSCAASGRTFFKYAMGWYRQAPGKERELVAAITGRGGSTYADSVKGRFTISRDNAKNTVYLQMNCLKPEDTAVYYCAKVFQRGAQYYYYKYDYWGQGTQVTVSS | high polyreactivity

Sequence | polyreactivity (PSR sort gate)
QVQLVESGGGLVQAGGSLRLSCAASGFTFGYYAMGWYRQAPGKERELVAAIRSSGGSTYYADSVKGRFTISRDNAKNTVYLQMNSLKPEDTAVYYCAVLYGYRSSSRYGYDSWGQGTQVTVSS | high polyreactivity
QVQLVESGGGLVQAGGSLRLSCAASGFTLLGNTMGWSRQAPGKERELVAAIRTNSGRTYYADSVKGRFTISRDNAKNTVYLQMNSLKPEDTAVYYCNAQSYRSDSAYHYNYDYWGQGTQVTVSS | high polyreactivity
QVQLVESGGGLVQAGGSLRLSCAASGSTFPTNAMGWYRQAPGKERELVADINGNGGRTYYADSVKGRFTISRDNAKNTVYLQMNSLKPEDTAVYYCAVEPDVYPSWYYYVDYDYWGQGTQVTVSS | low polyreactivity
QVQLVESGGGLVQAGGSLRLSCAASGSTFRRYAMGWYRQAPGKERELVADISSGGSTYYADSVKGRFTISRDNAKNTVYLQMNSLKPEDTAVYYCNAKTFYYGSRFRRAEYDYWGQGTQVTLSS | low polyreactivity
QVQLVESGGGLVQAGGSLRLSCAASGRIFNYYAMGWYRQATGKERELVARIDASGDSTYYADSVKGRFTISRDNAKNTVYLQMNSLKPEDTAVYYCNKDYLYSYLWGWKVYSYDYWGQGTQVTVSS | low polyreactivity
QVHLVESGGGLVQAGGTLRLSCAASGLFARNAMGWYRQAPGKERELVAAINRSGGSTYYADSVKGRFTISRDNAKNTVYLQMNSLKPEDTAVYYCNKAFTHTKDRSPIAYEYGYWGQGTQVTVSS | low polyreactivity
QVQLVESGGGLVQAGGSLRLSCAASGFISDWYAMGWFRQAPGKERELVATIDWLGGSTYAHSVKGRFTISRDNAKNTVYLQMNSLKPEDTAVYYCAADSYFIAWYGAPYAYDYWGQGTQVTVSS | low polyreactivity
QVQLVESGGGLVQAGGSLRLSCAASGFIFGRYTMGWYSQAPGKERELVAAISSRGGSTYYADSVKGRFTISRDNAKNTVYLQMNSLKPEDTAVYYCAADEIYGYDYWGQGTQVTVSS | high polyreactivity
QVQLVESGGGLVQAGGSLRLSCAASGLIFWGYTMGWYRQAPGKERELVAAISRRGGRTYYADSVKGRFTISRDNAKNTVYLQMNSLKPEDTAVYYCNADITSSGPKSDYWGQGTQVTVSS | high polyreactivity
QVQLVESGGGLVQAGGSLRLSCAASGSIFAHYAMGGYRQAPGKERELVAAITRGGGTYYADSVKGRFTLSRDNAKNTVYLQMNSVKPEDTAVYYCARIYYVSIYRYDYWGQGTQVTVSS | high polyreactivity
QVQLVESGGGLVQAGSSLRLSCAASGRTFTGNAMGRYRQAPGKERELVADISSDGSTNYADSVKGRFTISRDNAKNTVYLQMNSLKPEDTAVYYCAADPFWTYYIDYDYWGQGTQVTVSS | low polyreactivity
QVQLVESGGGLVQAGGSLRLSCAASGSIFGFNAMGWYRQAPGKERELVAAISGRGTGTYYADSVKGRFTISRDNAKNTVYLQMNSLKPEDTAVYYCYTYYYWGQGTQVTVSS | high polyreactivity
QVQLVESGGGLVLAGGSLRLSCAASGIIFYYYTMGWYRQAPGKERELVAWSGGNTNYADSVKGRFTISRDNAKNTVYLQMNSLIPEDSAVYYCNALAIWSDDWDQWISYADDYWGQGTQVTVSS | low polyreactivity
QVQLVESGGGLVQAGGSLRLSCAASGATFYVYAMGWYRQAPGKERELVAAIRYRGGTTHYADSVKGRFTISRDNAKNTVYVQMNSLKPEDTAVYYCAADGYVYRSGRRYDYWGQGTQVTVSS | high polyreactivity
QVHLVESGGGLVQAGGTLRLRCAASGSTFERYVMGWYRHPLGKKGSWLPVLNHNGCSTYYAESVKGRFTISRDNAKNTVYLQMNSLKQEVTAVYYCAAYFRTVLDYGSWGQGTQVTVSS | low polyreactivity
QVQLVESGGGLVQAGGSLRLSCAASGLTFESYAMGWYRQAPGKERELVAGIDWSGGSTYYADSVKGRFTISRDNAKNTVYLQMNSLKPEDTAGYYCKRYGNSNYFAPGPLYNYWGQGTQVTVSS | high polyreactivity
QVQLGESGEGLVQAGGSLRLSCAASGFTCGYYTMGLYRQAPGKERELVAAISSSGGRTYYADSVKGRFTISRDNAKNSVYFQMNSLKPEDTAVYYCNVYYISTDLYYWGQGTQVTVSS | high polyreactivity
QVQLVESGGGLVKAGGSLRLSCAASGSIFPDNAMGWYRQAPGKERELVAAISEGSTSTYYADSVKGRFTISRDNAKYTVYLQMNSLKPEDTAVYYCAADYDTGYEYWGQGTQVTVSS | low polyreactivity
QVQLVESGGGLVQAGGSLRLSCAASGSIFRGYAMGWYRQATGKERELVATIDSSAGSTYYADSVKGRFTISRDNAKNTVYLQMHSLKPEDTAVYYCATDPYGYYYSGFDYWGQGTQVTVSS | low polyreactivity
QLQLVESGGGLVQAGGSLRLSCAASGRIFGVYVMGLYRQAPGKERELVAAISWSGSHTYYADSVKGRFTISRDNAKNTVYLQMNSLKPEDTAVYYCNADSYPDYTGPGLDWYDYWGQGTQVTVSS | low polyreactivity
QVQLVESGGGLVQAGGSLRLSFAASGLIFGYNAMGWYRQAPGTERELVAAISRRGTSTYYADSVKGRFTISRDNAKNTVYLQMNSLKPEDTAVYYCATYGVNPPGVEEYNYWGQGTQVTVSS | high polyreactivity
